Our source for the Kd values is publication PMC6827426 (Translational Vision Science & Technology, 2019).

In the assay the target is T1, vascular endothelial growth factor (VEGF) (Homo sapiens, UniProt P15692-4).
T1 construct: vascular endothelial growth factor (VEGF-A); The SPR paragraph says only 'immobilized VEGF'; also called recombinant human VEGF
The assay is described as follows: SPR; Biacore T200; VEGF immobilised, Fabs as analyte. Particulars: both partners purified. On the technique in general: Surface plasmon resonance follows binding to a sensor surface in real time, without labels.

Where a chain is given by its changes, count along the chain named.

T1 sequence (P15692 whole entry): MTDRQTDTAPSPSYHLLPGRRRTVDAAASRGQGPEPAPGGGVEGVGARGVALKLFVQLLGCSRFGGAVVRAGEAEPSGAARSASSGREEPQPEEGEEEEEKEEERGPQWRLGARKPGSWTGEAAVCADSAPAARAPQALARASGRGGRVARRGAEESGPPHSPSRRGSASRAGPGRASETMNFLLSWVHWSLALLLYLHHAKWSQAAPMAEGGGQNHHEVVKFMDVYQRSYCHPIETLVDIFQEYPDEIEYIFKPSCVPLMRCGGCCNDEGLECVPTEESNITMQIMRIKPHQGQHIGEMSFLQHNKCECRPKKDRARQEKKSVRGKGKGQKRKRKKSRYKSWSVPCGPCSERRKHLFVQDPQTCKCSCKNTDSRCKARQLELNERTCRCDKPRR

B1: RBZ–3 (Fab, V domains shown)
VH: EVQLVESGGGLVQPGGSLRLSCAASGYDFTHYGMNWVRQAPGKGLEWVGWINTYTGEPTYAADFKRRFTFSLDTSKSTAYLQMNSLRAEDTAVYYCAKYPYYYGTSHWYFDVWGQGTLVTVSS
VL: DIQLTQSPSSLSASVGDRVTITCSASQDISNYLNWYQQKPGKAPKVLIYDTSDLESGVPSRFSGSGSGTDFTLTISSLQPEDFATYYCQQYSTVPWTFGQGTKVEIK
notes: as the light chain of m1 (ranibizumab) before CDR-L1; CDR-L1, same as ranibizumab; as the light chain of m1 (ranibizumab) between CDR-L1 and CDR-L2; CDR-L2, changed from FTSSLHS of ranibizumab; as the light chain of m1 (ranibizumab) after CDR-L2; as the heavy chain of m1 (ranibizumab Fab), unchanged; Charge variant, relative charge -3 against ranibizumab; changes only in CDR-L2; also called TA_2; …
Turning to B1, the Kd (commonly the constant that tells how readily two partners part at equilibrium) is less than 5 nM.

B2: RBZ-HI high (Fab, V domains shown)
VH: B1 VH
VL: B1 VL with A25V, D28V, N31S, Y32W, N34A, D50F, T51A, D53S, E55Q, S56T
notes: as the light chain of m1 (ranibizumab) before CDR-L1; as the light chain of m1 (ranibizumab) between CDR-L1 and CDR-L2; CDR-L2, changed from FTSSLHS of ranibizumab; as the light chain of m1 (ranibizumab) after CDR-L2; as the heavy chain of m1 (ranibizumab Fab), unchanged; Hydrophobicity variant; source: E. coli, 10 L fermentation, purified (Protein G-Sepharose, cation exchange Hitrap SP HP)
B2 displayed a Kd of less than 5 nM.

B3: RBZ+7 (Fab, V domains shown)
VH: B1 VH
VL: B1 VL with S24R, S26R, D28G, S30R, D50K, D53R, L54R, E55H
notes: as the light chain of m1 (ranibizumab) before CDR-L1; as the light chain of m1 (ranibizumab) between CDR-L1 and CDR-L2; CDR-L2, changed from FTSSLHS of ranibizumab; as the light chain of m1 (ranibizumab) after CDR-L2; as the heavy chain of m1 (ranibizumab Fab), unchanged; Charge variant, relative charge +7 against ranibizumab; also called TA_3; source: E. coli, 10 L fermentation, purified …
As for B3, the dissociation constant Kd was less than 5 nM.

B4: RBZ-HI low (Fab, V domains shown)
VH: B1 VH
VL: B1 VL with S24Q, Y32S, D50S, D53N, E55H
notes: as for B2
Turning to B4, the equilibrium dissociation constant (Kd) was less than 5 nM.
